Data as given in publication PMC5173035.

What was measured:
[1] = biological target: M1.HpyAVI, DNA N6-adenine methyltransferase from Helicobacter pylori 26695 (Helicobacter pylori 26695); test: crystal structure; cofactor-free (3.0 Å, four monomers in the asymmetric unit) and AdoMet-bound (3.1 Å, eight monomers) crystals; dimer with the two monomers related by a two-fold axis; interface analysed with PDBePISA
[2] = biological target: M1.HpyAVI, DNA N6-adenine methyltransferase from Helicobacter pylori 26695 (Helicobacter pylori 26695); test: SEC; Superdex 75 10/300 column on FPLC, 0.05, 0.1, 0.2, 0.5 mg/ml protein loaded; calibrated with gel filtration calibration kit LMW

stoichiometry N [1]: 2
stoichiometry N [2]: 2
Substance: M1.HpyAVI, DNA N6-adenine methyltransferase from Helicobacter pylori 26695 (enzyme)
